assay: soluble on expression in E. coli; label from the status in PepcDB or PDB records

| Sequence | soluble on expression in E. coli |
| --- | --- |
| KDWSLDVTANISALRNKVKSLGEGVQPIKAEVMMSGSFNDRPTITKPGLPIGTFWGYVVEGFDNDGNFIFQDNNGSVNGVLTGKPDGKIDENDKTDIGNPHPDFTYGLNINVGYKNWDLTAFFQGTQGNDIFALMKYDWYFGGANSATLKDAFYNSWTPQNPNAEAPKLNSKNSSGINSLPSTFYVEDGSYFRCKNLQIGYSFNKKLLQKFHIESFRIYAGVQNLFTITKYPLYDPEVSSNVLFDRGVDGFWQAQESPHEATMNSRVYNLGVNLTF | not soluble |
| KETAAAKFERQHMDSGGGGSGHMENGYTYEDYKNTAEWLLSHTKHRPQVAIICGSGLGGLTDKLTQAQIFDYGEIPNFPRSTVPGHAGRLVFGFLNGRACVMMQGRFHMYEGYPLWKVTFPVRVFHLLGVDTLVVTNAAGGLNPKFEVGDIMLIRDHINLPGFSGQNPLRGPNDERFGDRFPAMSDAYDRTMRQRALSTWKQMGEQRELQEGTYVMVAGPSFQTVAECRVLQKLGADAVGMSTVPEVIVARHCGLRVFGFSLITDKVIMDYESLEKANHEEVLAAGKQAAQKLEQFVSILMASIPLPDKAS | soluble |
| KGDWAWQAGFSLSGVKNEITDMKGVEDIKDNTINREGEAIGSYYGLKAIGIYRTQADLDRVNANGQKILQNNQEPQLGDIMYEDIDNNGNINDADRTIIGNPFPKMQYSFNLGFSYKDFDVNTFWQGIAGVYRYNWDETTISNGGNKTSRWLDRWSESNPNGSMPRLGGTINNNYSSFWLTKGDYLRLKNLEIGYTFRQREFLTKLGVQSIRLYLAGTNLLTFTSLDDYDPEKLSTDSRNDVHPNTRTYSFGVNVKF | not soluble |
| KGESYKGKVAVASVVLNRTEKKGFPDTIRGVIYQKNAFEPVANGSINQKPDKESIEAAEEALSSKNRETDAIFFYNPKTASDNWIRSRKIVEKIGRHVFAV | not soluble |
| KIGERMLGTDPVTGESVVAKMGRYGAMVQKGRTDKENGIKAQFASLQPGQSIESITLEEALELFLLPKKLGQYEDADVMVAVGRFGPYIKHAGKFVGLPKDTEPLSVSLDDAIKYIADKREKEEKSLIKGFAEDPEMEIRTGRFGVYIKYKGKNYKVPKTVEDPEKLTLEECLKYVEEGETKPAKGKKKAPAKKTSAKKTAKK | not soluble |
| KKNNVYPELEAFIGKEIIFSDKNFNTVGNKAFKDQFLLISYVDSGNCTPCSLEKMQYMKTNKRRLLDTHTGVLMIVHEKDTFTVNEVFRQMHVSYPIFFDSLGCFKKENGIFDNPLYQDFVIDRSNKVVWLGNPLRNKQSWQQYEKAISMLMD | not soluble |
| KKPMFLCVLSSTKTAHIPKLSAAGKTAELTDYTPAGDAELMETGNIISVPVLPMTPPYDTPTPAIMTRSALKLTDAPYHFINSGLIVTPDVPCIDLKANPGEDIREPVAVMDVQGIYERAKLLAKRLRNQADHVVIGESIPGGTTTAMGVLMALGYNGNVSSSADENPLELKKQVVEEGMKASGLTFGCLKDDPMKAIACMGDPMMPAVAGLVAGFQDTDTSVVLAGGTQMAAVYALIKHMGLNTEKIAIATTRYVVEDKSANFIQLTTTLGVPVVYVADPGFGKSSMKGLHRYETGTIKEGAGAGGAMYLAG | not soluble |
| KNCCVYDMATNTLVDAAPYGERSSDYQLATLFHNPGNNNEYLLSQVIEVLDDICQSKEIASETKTKAHWLLSYEPRLPDGDKVKRLLSILEQTLEAFSK | not soluble |
| KNSINTIKLIDDIIALHNDPKGNKLLWNDNWQDKIINRDLANIFEKIDESVSELGGLEMYQEMVGVNPYDPTEPVCGLSAQNIFKLMTEGEHAVDPVEMAQTGKIDGNEFAESVDQLSSAKNYVALVNDRRLGHMFLIDIPSNDQETVGYIYQSDLGQGALPPLKIADWLNSRGKDAVSLNKLKKLLSREFNLLSDDEKRALISETLDIHKDVSNVELDRIKRDRGVDIYLTEYDVNNFYENIETLKSKLSNYDKKLSKPK | soluble |
| KPKSAVAPPGAPKKEHVNVVFIGHVDAGKSTIGGQIMYLTGMVDERTLEKYEREAKEKNRETWYLSWALDTNQEERDKGKTVEVGRAYFETEKKHFTILDAPGHKSFVPNMIGGASQADLAVLVISARKGEFETGFEKGGQTREHAMLAKTAGVKHLIVLINKMDDPTVNWSNERYEECKEKLVPFLKKVGFNPKKDIHFMPCSGLTGANLKEQSDFCPWYIGLPFIPYLDNLPNFNRSVDGPIRLPIVDKYKDMGTVVLGKLESGSICKGQQLVMMPNKHNVEVLGILSDDVETDSVAPGENLKIRLKGIEEEEILPGFILCDLNNLCHSGRTFDAQIVIIEHKSIICPGYNAVLHIHTCIEEVEITALICLVDKKSGEKSKTRPRFVKQDQVCIARLRTAGTICLETFKDFPQMGRFTLRDEGKTIAIGKVLKLVPEKD | soluble |
| KPYQVVGEKQEILNLIDNTTLDVSFTLPVSYAESVSLSALKNAEMWVTMDSEPSKRIPGKFKEISTQPNIDTNSYEAIVTITRPTDRNLLTGMTGQVHIAKQNKSNAMTLPTSAWVNKQEKQGEVWVMDSSTQQVSKVTLSLNESGAIESGLDNNDYVVIAGVERLVEGQVVKAWIREEGI | not soluble |
| KPYVSEDSRVYSPQEPTLVVKSVDNSVSIDVTSKYNVNLYRNGELIQKNVIAQSYSDTPTGFACYLAESINDKGFRSNPSQPVCVGEEIRIKLDGEYQPLKDNVSVVTVSKDSGIVKGAESFTAPVTGTYQFDAWYNNNLGQLNTGITNTVKLLEVLDDAGKVVGQGYLQMGHIGENQGMRYSTPIEVALEQGKTYQFALKDHFNMSYLTSNETYIYAGGIEGEKNEAQIADIRITPLM | not soluble |
| KRFEFVGWGSRQLIEFLHSLGKDTSEMISRYDVSDTIAKYISKEGLLDPSNKKKVVCDKRLVLLFGTRTIFRMKVYDLLEKHYKENQD | soluble |
| KRKDITLLNPIVRKFQYGQHTVTLETGMMARQATAAVMVSMDDTAVFVTVVGQKKAKPGQDFFPLTVNYQERTYAAGRIPGSFFRREGRPSEGETLIARLIDRPIRPLFPEGFVNEVQVIATVVSVNPQVNPDIVAMIGASAALSLSGIPFNGPIGAARVGYINDQYVLNPTQDELKESKLDLVVAGTEAAVLMVESEAQLLSEDQMLGAVVFGHEQQQVVIQNINELVKEAGKPRWDWQPEPVNEALNARVAALAEARLSDAYRITDKQERYAQVDVIKSETIATLLAEDETLDENELGEILHAIEKNVVRSRVLAGEPRIDGREKDMIRGLDVRTGVLPRTHGSALFTRGETQALVTATLGTARDAQVLDELMGERTDTFLFHYNFPPYSVGETGMVGSPKRREIGHGRLAKRGVLAVMPDMDKFPYTVRVVSEITESNGSSSMASVCGASLALMDAGVPIKAAVAGIAMGLVKEGDNYVVLSDILGDEDHLGDMDFKVAGSRDGISALQMDIKIEGITKEIMQVALNQAKGARLHILGVMEQAINAPRGDISEFAPRIHTIKINPDKIKDVIGKGGSVIRALTEETGTTIEIEDDGTVKIAATDGEKAKHAIRRIEEITAEIEVGRVYTGKVTRIVDFGAFVAIGGGKEGLVHISQIADKRVEKVTDYLQMGQEVPVKVLEVDRQGRIRLSIKEATEQSQPAAAPEAPAAEQGEHHHHHH | soluble |
| KRSNSIKRNPNAPVVRRGWLYKQDSTGMKLWKKRWFVLSDLCLFYYRDEKEEGILGSILLPSFQIALLTSEDHINRKYAFKAAHPNMRTYYFCTDTGKEMELWMKAMLDAALVQT | soluble |
| KSCCSCCPAECEKCAKDCVCKGGEAAEAEAEKCSCCQ | soluble |
| KTIYLQSPYFIPDASLLEAIKIAALSGVDVRVMIPNKPDHAFVYRATTNYAGELMETGAKIFIYDNGFIHAKTLVVDGEIASVGTANMDFRSFRLNFEVNAFIYEKKMVQKLEDAFLEDILKSYQLTPELYAKR | not soluble |
| KTSILLLLMIATALPSFGGNGNGNGTDSLQATRYVTRATMYGVGYTNVFDTYLSPQEYKGIEFRISRETMRMTTLGDGNVSVQNFFQANLAYTHNRVDNNNTFAGLVNWNYGLHYQFRITDNFKLLAGGMGDFNGGFVYNLRNTNNPASARAYINLDASGMAIWHTKIKNYPLALRYQVNLPVIGVMFSPHYGQSYYEIFTLGHASGVIRFTSLHNQPALRQMLSVDFPIRYTKMRLSYLCDLQQSKLNGIKTHTYSQVFMVGFVHDLFRIRNKNGTPLPPAVRAY | not soluble |
| KTVPSGQAGQGFAEKGPWKKLGLTYTQKTEIQRIHHNTRAEMDKVLTTEQKEQLKAAMQERQTQRSQGEGRGKWKKDIFTSLNLTDAQKSQIQEIRELSRKQMEAVLTPAQRQQLQQMEQNWKSRRQQGNSN | not soluble |
